Two molecules from article PMC12924673 (Science (New York, N.Y.), 2024) can be followed below.

Data set [1] deals with recombinant ZnF0 of BCL11A. In words: AUC.
Data set [2] deals with recombinant ZnF0 of BCL11A. Put plainly: crystal structure.
Data set [3] addresses recombinant ZnF0 of BCL11A. Put plainly: native gel or EMSA.
For data set [4], the target named is recombinant ZnF0 of BCL11A. In words: dynamic light scattering.
The data set “native gel or EMSA” deals with the molecule itself. In words: native gel or EMSA.

With “recombinant ZnF0 of BCL11A (domain or fragment)”, the stoichiometry N in data set [1], in data set [2], in data set [3] and in data set [4] was 4 in each case.

B1: full-length (FL) BCL11A, recombinant (natural protein, UniProt Q9H165-1 1-835, looked up)
chain: MSRRKQGKPQHLSKREFSPEPLEAILTDDEPDHGPLGAPEGDHDLLTCGQCQMNFPLGDILIFIEHKRKQCNGSLCLEKAVDKPPSPSPIEMKKASNPVEVGIQVTPEDDDCLSTSSRGICPKQEHIADKLLHWRGLSSPRSAHGALIPTPGMSAEYAPQGICKDEPSSYTCTTCKQPFTSAWFLLQHAQNTHGLRIYLESEHGSPLTPRVGIPSGLGAECPSQPPLHGIHIADNNPFNLLRIPGSVSREASGLAEGRFPPTPPLFSPPPRHHLDPHRIERLGAEEMALATHHPSAFDRVLRLNPMAMEPPAMDFSRRLRELAGNTSSPPLSPGRPSPMQRLLQPFQPGSKPPFLATPPLPPLQSAPPPSQPPVKSKSCEFCGKTFKFQSNLVVHRRSHTGEKPYKCNLCDHACTQASKLKRHMKTHMHKSSPMTVKSDDGLSTASSPEPGTSDLVGSASSALKSVVAKFKSENDPNLIPENGDEEEEEDDEEEEEEEEEEEEELTESERVDYGFGLSLEAARHHENSSRGAVVGVGDESRALPDVMQGMVLSSMQHFSEAFHQVLGEKHKRGHLAEAEGHRDTCDEDSVAGESDRIDDGTVNGRGCSPGESASGGLSKKLLLGSPSSLSPFSKRIKLEKEFDLPPAAMPNTENVYSQWLAGYAASRQLKDPFLSFGDSRQSPFASSSEHSSENGSLRFSTPPGELDGGISGRSGTGSGGSTPHISGPGPGRPSSKEGRRSDTCEYCGKVFKNCSNLTVHRRSHTGERPYKCELCNYACAQSSKLTRHMKTHGQVGKDVYKCEICKMPFSVYSTLEKHMKKWHSDRVLNNDIKTE
With B1, the binding result in the data set “native gel or EMSA” is on record as “binds”.
